Test results taken from the supplement of paper PMC9170038.

Test system: MS2 coat protein
Test: apparent KD of MS2 coat protein; designed switch direction (-1 OFF switch, 1 ON switch): -1; higher = weaker reporter binding
Outline: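 Each step of the titration lasted 0.8–1.5 h at the lowest concentration and 10–20 min at the highest. The protein, SNAP-549-labelled MS2 coat protein, went from 0.7 or 1.5 nM doubling to 3 µM over RNA switches transcribed on Illumina chips by stalled E. coli RNA polymerase. Normalised cluster fluorescence was curve-fitted, and the per-design median over clusters is given as apparent KD.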

[1] = Eterna round: R95, input ligand: microRNA oligo, concentration not stated
[2] = input ligand: microRNA oligo, concentration not stated
[3] = Eterna round: R95, input ligand: FMN 200 uM
[4] = Eterna round: R95, input ligand: none

Sequence	apparent KD of MS2 coat protein (input ligand: FMN 200 uM) [nM]	apparent KD of MS2 coat protein (input ligand: none) [nM]	apparent KD of MS2 coat protein [1] [nM]	also measured
UGAACUGUAGGAUAUACAUGAGGAUCACCCAUGUCCCUUCGAUGAGGUCCCACCACGUGUAGAAGGAUGGAAGA [Eternabot (L1) Solution 11] (Eterna round: R97, puzzle: Exclusion 3)	36.8	42.2		
CUGUACAUAGGAUAUAGUUGCUUUUACAUGAGGAUCACCCAUGUCACUCCUCUCUCUCUUCUAGAAGGAUGUUUCU [JR_E5_Sub009] (puzzle: Exclusion 5)			68.4	
UUUUUAGAUGAAGGAUAUACUUAACAUGAGGAUCACCCAUGUGGUGUUGUGAGUGAGUGAGUUUAGUAGAAGGUCAAUGAUUUU [JMF's solution 66] (Eterna round: R96, puzzle: Exclusion NG 2)	937	377		apparent KD of MS2 coat protein [2]: 246 nM
GGUUUGGGAGGAUAUGGUUUUAAUAACAUGAGGAUCACCCAUGUAAAUAGAUCCUCAAGGCCAGAAGGCUCAAACC [-26.1, -25.22 kcal, A 33%] (Eterna round: R97, puzzle: Exclusion 5)	212	1980		
CCCUCACAUGAGGAUCACCCAUGUCAGGAUAUCUCAGUGCAUCCACACGGACGCAUCAAGAGAAGGGACAAAAC [Ququ] (Eterna round: R97, puzzle: Exclusion 1)	27.8	18.4		
CGCUGGUGAGGAUAUGGGUGUUUUUACAUGAGGAUCACCCAUGUGGAGUAGCAUGUGGGUCCAGAAGGCGCGGGUG [-24.2, -22.5 kcal, 20% A] (Eterna round: R97, puzzle: Exclusion 5)	682	435		
AGUUCGCAGAGAGGAUAUAUAGGGUUACGGCCUAUAGAAGGUUCACGUUAGCCGCAACAUGAGGAUCACCCAUGUGCUCCGCGA [Eternabot solution 35] (Eterna round: R96, puzzle: Exclusion NG 1)	27.5	29.6		apparent KD of MS2 coat protein [2]: 20.9 nM
GCAUGGUGAGGAUAUGCAGAAGGGCAACGGUCAUCAUGACUACAUGAGGAUCACCCAUGUAGAAGGCACACAUG [Betearor] (puzzle: Exclusion 2)			42.5	
CUGGUGUGAGGAUAUCAGGACACGUAAGCGGGCGUGUCAAAUGAGAAGGCACAUGAGGAUCACCCAUGUGGGAC [Atbeceesxe] (puzzle: Exclusion 4)			27.8	
UACACUGCAUGAGGAUCAAACAUGAGGAUCACCCAUGUAUAGCAGGCUUUUUGUACGUCUUAUAAUUAUGUAGUGUA [Electric Eye 16 - Jieux - Sensor, turn-off variant 1] (Eterna round: R97, puzzle: Sensor, turn-off variant 1)	15.9			
GCAUUGAGUGUGAGGAUAUGCUGGUCGUAAGAUCAGCAGAAGGCACAUGAGGAUCACCCAUGUGAAAACAAUGC [Mat - Exclusion 4 - JL Mod - D67] (puzzle: Brourd's mod of Exclusion 4)			23	apparent KD of MS2 coat protein [3]: 125 nM; apparent KD of MS2 coat protein [4]: 23.4 nM
CCCAAAGGGACAAGCUUUUACAUGAGGAUCACCCAUGUUUUGGGAGCUCGUCUUAUGGGCCCGGGAAACCCGGGCCC [-38, -58.7 kcal, A 22%] (Eterna round: R97, puzzle: Sensor, turn-off variant 1)	17.1	17.2		
CCUAGACAUGAGGAUCACCCAUGUGAGGAUAUGAUGCGAAUAAAGAAAGAAGAAAGCAUCAGAAGGCACAUAUG [Fiskers Ex 1 - 2] (puzzle: Exclusion 1)			41.2	apparent KD of MS2 coat protein [3]: 130 nM; apparent KD of MS2 coat protein [4]: 49.4 nM
AGAUAGUUAGGAUAUACAUGAGGAUCACCCAUGUAGAAAAGUGGCUAAUGAGACUCCGGUAGAAGGAACAAAAU [Isanqurama] (puzzle: Exclusion 3)			20	apparent KD of MS2 coat protein [3]: 41.7 nM; apparent KD of MS2 coat protein [4]: 27.7 nM
